Reference: patent publication US11325966

How the values were obtained:
Assay in all cases: cell-based or functional assay
[1] = target: HIV-1 Env of pseudovirus 231965.c01 (HIV-1)
[2] = target: HIV-1 Env of pseudovirus CNE52 (HIV-1)
[3] = target: HIV-1 Env of pseudovirus Ce1086_B2 (HIV-1)
[4] = target: HIV-1 Env of pseudovirus CNE20 (HIV-1)
[5] = target: HIV-1 Env of pseudovirus BJOX010000.06.2 (HIV-1)
[6] = target: HIV-1 Env of pseudovirus X1254_c3 (HIV-1)
[7] = target: HIV-1 Env of pseudovirus T257-31 (HIV-1)
[8] = target: HIV-1 Env of pseudovirus TRJO4551.58 (HIV-1)
[9] = target: HIV-1 Env of pseudovirus 1056_10_TA11_1826 (HIV-1)
[10] = target: HIV-1 Env of pseudovirus ZM249M.PL1 (HIV-1)
[11] = target: HIV-1 Env of pseudovirus T255-34 (HIV-1)
[12] = target: HIV-1 Env of pseudovirus T250-4 (HIV-1)
[13] = target: HIV-1 Env of pseudovirus REJO4541.67 (HIV-1)
[14] = target: HIV-1 Env of pseudovirus 3103.v3.c10 (HIV-1)
[15] = target: HIV-1 Env of pseudovirus ZM53M.PB12 (HIV-1)
[16] = target: HIV-1 Env of pseudovirus Q769.d22 (HIV-1)
[17] = target: HIV-1 Env of pseudovirus ZM214M.PL15 (HIV-1)
[18] = target: HIV-1 Env of pseudovirus 191955_A11 (HIV-1)
[19] = target: HIV-1 Env of pseudovirus 191821_E6_1 (HIV-1)
[20] = target: HIV-1 Env of pseudovirus WITO4160.33 (HIV-1)
[21] = target: HIV-1 Env of pseudovirus 211-9 (HIV-1)
[22] = target: HIV-1 Env of pseudovirus 6244_13_B5_4576 (HIV-1)
[23] = target: HIV-1 Env of pseudovirus Ce0393_C3 (HIV-1)
[24] = target: HIV-1 Env of pseudovirus C2101.c01 (HIV-1)
[25] = target: HIV-1 Env of pseudovirus R3265.c06 (HIV-1)
[26] = target: HIV-1 Env of pseudovirus TRO.11 (HIV-1)
[27] = target: HIV-1 Env of pseudovirus 6041.v3.c23 (HIV-1)
[28] = target: HIV-1 Env of pseudovirus 235-47 (HIV-1)
[29] = target: HIV-1 Env of pseudovirus 3301.v1.c24 (HIV-1)
[30] = target: HIV-1 Env of pseudovirus 6952.v1.c20 (HIV-1)
[31] = target: HIV-1 Env of pseudovirus THRO4156.18 (HIV-1)
[32] = target: HIV-1 Env of pseudovirus 249M B10 (HIV-1)
[33] = target: HIV-1 Env of pseudovirus Ce0682_E4 (HIV-1)
[34] = target: HIV-1 Env of pseudovirus Ce2060_G9 (HIV-1)
[35] = target: HIV-1 Env of pseudovirus X1193_c1 (HIV-1)
[36] = target: HIV-1 Env of pseudovirus Q461.e2 (HIV-1)
[37] = target: HIV-1 Env of pseudovirus X2131_C1_B5 (HIV-1)
[38] = target: HIV-1 Env of pseudovirus AC10.0.29 (HIV-1)
[39] = target: HIV-1 Env of pseudovirus 6545.v4.c1 (HIV-1)
[40] = target: HIV-1 Env of pseudovirus HIV-001428-2.42 (HIV-1)

In the case of BG18 IgG (354BG18) (antibody), the IC50 in TZM-bl assay [1] is reported as > 30 µg/mL, the IC80 in TZM-bl assay [1] is reported as > 30 µg/mL and the IC50 in TZM-bl assay [2] is reported as 0.012 µg/mL. For the same substance, the IC80 in TZM-bl assay [2] was 0.045 µg/mL, the IC50 in TZM-bl assay [3] was > 30 µg/mL and the IC80 in TZM-bl assay [3] was > 30 µg/mL. For the same substance, the IC50 in TZM-bl assay [4] was 2 ng/mL, the IC80 in TZM-bl assay [4] was 6 ng/mL and the IC50 in TZM-bl assay [5] was > 30 µg/mL. The IC80 in TZM-bl assay [5] was > 30 µg/mL, the IC50 in TZM-bl assay [6] was 4 ng/mL and the IC80 in TZM-bl assay [6] was 0.012 µg/mL. The IC50 in TZM-bl assay [7] was > 30 µg/mL, the IC80 in TZM-bl assay [7] was > 30 µg/mL and the IC50 in TZM-bl assay [8] was 3.34 µg/mL. It also gave an IC80 in TZM-bl assay [8] of 26.9 µg/mL, an IC50 in TZM-bl assay [9] of 7 ng/mL and an IC80 in TZM-bl assay [9] of 0.045 µg/mL. The IC50 in TZM-bl assay [10] was > 30 µg/mL, the IC80 in TZM-bl assay [10] was > 30 µg/mL and the IC50 in TZM-bl assay [11] was > 30 µg/mL. The IC80 in TZM-bl assay [11] was > 30 µg/mL, the IC80 in TZM-bl assay [12] was 6 ng/mL and the IC50 in TZM-bl assay [13] was > 30 µg/mL. The IC80 in TZM-bl assay [13] was > 30 µg/mL, the IC50 in TZM-bl assay [14] was 2 ng/mL and the IC80 in TZM-bl assay [14] was 5 ng/mL. For the same substance, the IC50 in TZM-bl assay [15] was > 30 µg/mL, the IC80 in TZM-bl assay [15] was > 30 µg/mL and the IC50 in TZM-bl assay [16] was > 30 µg/mL. The IC80 in TZM-bl assay [16] was > 30 µg/mL, the IC50 in TZM-bl assay [17] was > 30 µg/mL and the IC80 in TZM-bl assay [17] was > 30 µg/mL. For the same substance, the IC50 in TZM-bl assay [18] was > 30 µg/mL, the IC80 in TZM-bl assay [18] was > 30 µg/mL and the IC50 in TZM-bl assay [19] was 14.1 µg/mL. For the same substance, the IC80 in TZM-bl assay [19] was > 30 µg/mL, the IC50 in TZM-bl assay [20] was 0.018 µg/mL and the IC80 in TZM-bl assay [20] was 0.25 µg/mL. It also gave an IC50 in TZM-bl assay [21] of 1.3 µg/mL, an IC80 in TZM-bl assay [21] of 5.53 µg/mL and an IC50 in TZM-bl assay [22] of 0.011 µg/mL. The IC80 in TZM-bl assay [22] was 0.049 µg/mL, the IC50 in TZM-bl assay [23] was > 30 µg/mL and the IC80 in TZM-bl assay [23] was > 30 µg/mL. The IC50 in TZM-bl assay [24] was > 30 µg/mL, the IC80 in TZM-bl assay [24] was > 30 µg/mL and the IC50 in TZM-bl assay [25] was > 30 µg/mL. For the same substance, the IC80 in TZM-bl assay [25] was > 30 µg/mL, the IC80 in TZM-bl assay [26] was 2 ng/mL and the IC50 in TZM-bl assay [27] was > 30 µg/mL. The IC80 in TZM-bl assay [27] was > 30 µg/mL, the IC50 in TZM-bl assay [28] was 5 ng/mL and the IC80 in TZM-bl assay [28] was 0.017 µg/mL. It also gave an IC50 in TZM-bl assay [29] of 0.025 µg/mL, an IC80 in TZM-bl assay [29] of 0.082 µg/mL and an IC50 in TZM-bl assay [30] of 5 ng/mL. The IC80 in TZM-bl assay [30] was 0.011 µg/mL, the IC50 in TZM-bl assay [31] was > 30 µg/mL and the IC80 in TZM-bl assay [31] was > 30 µg/mL. The IC50 in TZM-bl assay [32] was > 30 µg/mL, the IC80 in TZM-bl assay [32] was > 30 µg/mL and the IC50 in TZM-bl assay [33] was > 30 µg/mL. For the same substance, the IC80 in TZM-bl assay [33] was > 30 µg/mL, the IC50 in TZM-bl assay [34] was > 30 µg/mL and the IC80 in TZM-bl assay [34] was > 30 µg/mL. For the same substance, the IC50 in TZM-bl assay [35] was 5 ng/mL, the IC80 in TZM-bl assay [35] was 0.022 µg/mL and the IC50 in TZM-bl assay [36] was > 30 µg/mL. For the same substance, the IC80 in TZM-bl assay [36] was > 30 µg/mL, the IC50 in TZM-bl assay [37] was 2 ng/mL and the IC80 in TZM-bl assay [37] was 8 ng/mL. The IC80 in TZM-bl assay [38] was 3 ng/mL, the IC50 in TZM-bl assay [39] was > 30 µg/mL and the IC80 in TZM-bl assay [39] was > 30 µg/mL. The IC50 in TZM-bl assay [40] was 4 ng/mL and the IC80 in TZM-bl assay [40] was 0.021 µg/mL.
